Source: FireProtDB (doi:10.1002/cbic.201402128)

B1: Haloalkane dehalogenase, D4Z2G1 (parent)
chain: MSLGAKPFGEKKFIEIKGRRMAYIDEGTGDPILFQHGNPTSSYLWRNIMPHCAGLGRLIACDLIGMGDSDKLDPSGPERYAYAEHRDYLDALWEALDLGDRVVLVVHDWGSALGFDWARRHRERVQGIAYMEAIAMPIEWADFPEQDRDLFQAFRSQAGEELVLQDNVFVEQVLPGLILRPLSEAEMAAYREPFLAAGEARRPTLSWPRQIPIAGTPADVVAIARDYAGWLSESPIPKLFINAEPGALTTGRMRDFCRTWPNQTEITVAGAHFIQEDSPDEIGAAIAAFVRRLRPA

Variants of: B1
Settings: Sphingobium indicum (strain DSM 16413 / CCM 7287 / MTCC 6362 / UT26 / NBRC 101211 / UT26S); pH 7.5; Thermal; fluorescence; Na-Hepes 50 mM; reversible: no; structure 1MJ5; whole UniProt chain shown

Variant | Tm [°C] | change of melting temperature, mutant - wild type (higher = more stable) [°C]
MSLGAKPFGEKKFIEIKGRRMAYIDEGTGDPILFQHGNPTSSYLWRNIMPHCAGLGRLIACDLIGMGDSDKLDPSGPERYAYAEHRDYLDALWEALDLGDRVVLVVHDWGSALGFDWARRHRERVQGIAYMEAIAMPIEWADFPEQDRDLFQAFRSQAGEELVLQDNVFVEQVLPALILRPLSEAEMAAYREPFLAAGEARRPTLSWPRQIPIAGTPADVVAIARDYAGWLSESPIPKLFINAEPGALTTGRMRDFCRTWPNQTEITVAGAHFIQEDSPDEIGAAIAAFVRRLRPA [G176A] | 51.5 | 0.5
MSLGAKPFGEKKFIEIKGRRMAYIDEGTGDPILFQHGNPTSSYLWRNIMPHCAGLGRLIACDLIGMGDSDKLDPSGPERYAYAEHRDYLDALWEALDLGDRVVLVVHDWGSALGFDWARRHRERVQGIAYMEAIAMPIEWADFPEQDRDLFQAFRSQAGEELVLQDNVFVEQVLPNLILRPLSEAEMAAYREPFLAAGEARRPTLSWPRQIPIAGTPADVVAIARDYAGWLSESPIPKLFINAEPGALTTGRMRDFCRTWPNQTEITVAGAHFIQEDSPDEIGAAIAAFVRRLRPA [G176N] | 51 | 0
MSLGAKPFGEKKFIEIKGRRMAYIDEGTGDPILFQHGNPTSSYLWRNIMPHCAGLGRLIACDLIGMGDSDKLDPSGPERYAYAEHRDYLDALWEALDLGDRVVLVVHDWGSALGFDWARRHRERVQGIAYMEAIAMPIEWADFPEQDRDLFQAFRSQAGEELVLQDNVFVEQVLPGLILRPLSEPEMAAYREPFLAAGEARRPTLSWPRQIPIAGTPADVVAIARDYAGWLSESPIPKLFINAEPGALTTGRMRDFCRTWPNQTEITVAGAHFIQEDSPDEIGAAIAAFVRRLRPA [A185P] | 50.5 | -0.5
MSLGAKPFGEKKFIEIKGRRMAYIDEGTGDPILFQHGNPTSSYLWRNIMPHCAGLGRLIACDLIGMGDSDKLDPSGPERYAYAEHRDYLDALWEALDLGDRVVLVVHDWGSALGFDWARRHRERVQGIAYMEAIAMPIEWADFPEQLRDLFQAFRSQAGEELVLQDNVFVEQVLPGLILRPLSEAEMAAYREPFLAAGEARRPTLSWPRQIPIAGTPADVVAIARDYAGWLSESPIPKLFINAEPGALTTGRMRDFCRTWPNQTEITVAGAHFIQEDSPDEIGAAIAAFVRRLRPA [D147L] | 65 | 14
MSLGAKPFGEKKFIEIKGRRMAYIDEGTGDPILFQHGNPTSSYLWRNIMPHCAGLGRLIACDLIGMGDSDKLDPSGPERYAYAEHRDYLDALWEALDLGDRVVLVVHDWGSALGFDWARRHRERVQGIAYMEAIAMPIEWADFPEQHRDLFQAFRSQAGEELVLQDNVFVEQVLPGLILRPLSEAEMAAYREPFLAAGEARRPTLSWPRQIPIAGTPADVVAIARDYAGWLSESPIPKLFINAEPGALTTGRMRDFCRTWPNQTEITVAGAHFIQEDSPDEIGAAIAAFVRRLRPA [D147H] | 59.5 | 8.5
MSLGAKPFGEKKFIEIKGRRMAYIDEGTGDPILFQHGNPTSSYLWRNIMPHCAGLGRLIACDLIGMGDSDKLDPSGPERYAYAEHRDYLDALWEALDLGDRVVLVVHDWGSALGFDWARRHRERVQGIAYMEAIAMPIEWADFPEQMRDLFQAFRSQAGEELVLQDNVFVEQVLPGLILRPLSEAEMAAYREPFLAAGEARRPTLSWPRQIPIAGTPADVVAIARDYAGWLSESPIPKLFINAEPGALTTGRMRDFCRTWPNQTEITVAGAHFIQEDSPDEIGAAIAAFVRRLRPA [D147M] | 66 | 15
MSLGAKPFGEKKFIEIKGRRMAYIDEGTGDPILFQHGNPTSSYLWRNIMPHCAGLGRLIACDLIGMGDSDKLDPSGPERYAYAEHRDYLDALWEALDLGDRVVLVVHDWGSALGFDWARRHRERVQGIAYMEAIAMPIEWADFPEQYRDLFQAFRSQAGEELVLQDNVFVEQVLPGLILRPLSEAEMAAYREPFLAAGEARRPTLSWPRQIPIAGTPADVVAIARDYAGWLSESPIPKLFINAEPGALTTGRMRDFCRTWPNQTEITVAGAHFIQEDSPDEIGAAIAAFVRRLRPA [D147Y] | 65 | 14
MSLGAKPFGEKKFIEIKGRRMAYIDEGTGDPILFQHGNPTSSYLWRNIMPHCAGLGRLIACDLIGMGDSDKLDPSGPERYAYAEHRDYLDALWEALDLGDRVVLVVHDWGSALGFDWARRHRERVQGIAYMEAIAMPIEWADFPEQDRDLFQAFRSQAGEELVLQNNVFVEQVLPGLILRPLSEAEMAAYREPFLAAGEARRPTLSWPRQIPIAGTPADVVAIARDYAGWLSESPIPKLFINAEPGALTTGRMRDFCRTWPNQTEITVAGAHFIQEDSPDEIGAAIAAFVRRLRPA [D166N] | 53 | 2
MSLGAKPFGEKKFIEIKGRRMAYIDEGTGDPILFQHGNPTSSYLWRNIMPHCAGLGRLIACDLIGMGDSDKLDPSGPERYAYAEHRDYLDALWEALDLGDRVVLVVHDWGSALGFDWARRHRERVQGIAYMEAIAMPIEWADFPEQDRDLFQAFRSQAGEELVLQKNVFVEQVLPGLILRPLSEAEMAAYREPFLAAGEARRPTLSWPRQIPIAGTPADVVAIARDYAGWLSESPIPKLFINAEPGALTTGRMRDFCRTWPNQTEITVAGAHFIQEDSPDEIGAAIAAFVRRLRPA [D166K] | 53.5 | 2.5
MSLGAKPFGEKKFIEIKGRRMAYIDEGTGDPILFQHGNPTSSYLWRNIMPHCAGLGRLIACDLIGMGDSDKLDPSGPERYAYAEHRDYLDALWEALDLGDRVVLVVHDWGSALGFDWARRHRERVQGIAYMEAIAMPIEWADFPEQDRDLFQAFRSQAGEELVLQDNVFVEQVLPGLILRPLSEAEMAYYREPFLAAGEARRPTLSWPRQIPIAGTPADVVAIARDYAGWLSESPIPKLFINAEPGALTTGRMRDFCRTWPNQTEITVAGAHFIQEDSPDEIGAAIAAFVRRLRPA [A189Y] | 51.5 | 0.5
MSLGAKPFGEKKFIEIKGRRMAYIDEGTGDPILFQHGNPTSSYLWRNIMPHCAGLGRLIACDLIGMGDSDKLDPSGPERYAYAEHRDYLDALWEALDLGDRVVLVVHDWGSALGFDWARRHRERVQGIAYMEAIAMPIEWADFPEQDRDLFQAFRSQAGEELVLQDNVFVEQVLPGLILRPLSEAEMAFYREPFLAAGEARRPTLSWPRQIPIAGTPADVVAIARDYAGWLSESPIPKLFINAEPGALTTGRMRDFCRTWPNQTEITVAGAHFIQEDSPDEIGAAIAAFVRRLRPA [A189F] | 51.5 | 0.5
MSLGAKPFGEKKFIEIKGRRMAYIDEGTGDPILFQHGNPTSSYLWRNIMPHCAGLGRLIACDLIGMGDSDKLDPSGPERYAYAEHRDYLDALWEALDLGDRVVLVVHDWGSALGFDWARRHRERVQGIAYMEAIAMPIEWADFPEQDRDLFQAFRSQAGEELVLQDNVFVEQVLPGLILRPLCEACMAAYREPFLAAGEARRPTLSWPRQIPIAGTPADVVAIARDYAGWLSESPIPKLFINAEPGALTTGRMRDFCRTWPNQTEITVAGAHFIQEDSPDEIGAAIAAFVRRLRPA [S183C E186C] | 47 | -4
MSLGAKPFGEKKFIEIKGRRMAYIDEGTGDPILFQHGNPTSSYLWRNIMPHCAGLGRLIACDLIGMGDSDKLDPSGPERYAYAEHRDYLDALWEALDLGDRVVLVVHDWGSALGFDWARRHRERVQGIAYMEAIAMPIEWADFPEQDRDLFLAFRSQAGEELVLQDNVFVEQVLPGLILRPLSEAEMAAYREPFLAAGEARRPTLSWPRQIPIAGTPADVVAIARDYAGWLSESPIPKLFINAEPGALTTGRMRDFCRTWPNQTEITVAGAHFIQEDSPDEIGAAIAAFVRRLRPA [Q152L] | 61.5 | 10.5
MSLGAKPFGEKKFIEIKGRRMAYIDEGTGDPILFQHGNPTSSYLWRNIMPHCAGLGRLIACDLIGMGDSDKLDPSGPERYAYAEHRDYLDALWEALDLGDRVVLVVHDWGSALGFDWARRHRERVQGIAYMEAIAMPIEWADFPEQDRQLFQAFRSQAGEELVLQDNVFVEQVLPGLILRPLSEAEMAAYREPFLAAGEARRPTLSWPRQIPIAGTPADVVAIARDYAGWLSESPIPKLFINAEPGALTTGRMRDFCRTWPNQTEITVAGAHFIQEDSPDEIGAAIAAFVRRLRPA [D149Q] | 62 | 11
MSLGAKPFGEKKFIEIKGRRMAYIDEGTGDPILFQHGNPTSSYLWRNIMPHCAGLGRLIACDLIGMGDSDKLDPSGPERYAYAEHRDYLDALWEALDLGDRVVLVVHDWGSALGFDWARRHRERVQGIAYMEAIAMPIEWADFPEQDRKLFQAFRSQAGEELVLQDNVFVEQVLPGLILRPLSEAEMAAYREPFLAAGEARRPTLSWPRQIPIAGTPADVVAIARDYAGWLSESPIPKLFINAEPGALTTGRMRDFCRTWPNQTEITVAGAHFIQEDSPDEIGAAIAAFVRRLRPA [D149K] | 67.5 | 16.5
MSLGAKPFGEKKFIEIKGRRMAYIDEGTGDPILFQHGNPTSSYLWRNIMPHCAGLGRLIACDLIGMGDSDKLDPSGPERYAYAEHRDYLDALWEALDLGDRVVLVVHDWGSALGFDWARRHRERVQGIAYMEAIAMPIEWADFPEQDRDLFQAFRSQAGEELVLQDNVFVEQVLPGLILRPLSEAEMAAYRKPFLAAGEARRPTLSWPRQIPIAGTPADVVAIARDYAGWLSESPIPKLFINAEPGALTTGRMRDFCRTWPNQTEITVAGAHFIQEDSPDEIGAAIAAFVRRLRPA [E192K] | 54 | 3
MSLGAKPFGEKKFIEIKGRRMAYIDEGTGDPILFQHGNPTSSYLWRNIMPHCAGLGRLIACDLIGMGDSDKLDPSGPERYAYAEHRDYLDALWEALDLGDRVVLVVHDWGSALGFDWARRHRERVQGIAYMEAIAMPIEWADFPEQDRDLFQAFRSQAGEELVLQDNVFVEQVLPGLILRPLSEAEMAAYRLPFLAAGEARRPTLSWPRQIPIAGTPADVVAIARDYAGWLSESPIPKLFINAEPGALTTGRMRDFCRTWPNQTEITVAGAHFIQEDSPDEIGAAIAAFVRRLRPA [E192L] | 51.5 | 0.5
MSLGAKPFGEKKFIEIKGRRMAYIDEGTGDPILFQHGNPTSSYLWRNIMPHCAGLGRLIACDLIGMGDSDKLDPSGPERYAYAEHRDYLDALWEALDLGDRVVLVVHDWGSALGFDWARRHRERVQGIAYMEAIAMPIEWADFPEQDRDLFQAFRSQAGEELVLQDNVFVEQVLPGLILRPLDEAEMAAYREPFLAAGEARRPTLSWPRQIPIAGTPADVVAIARDYAGWLSESPIPKLFINAEPGALTTGRMRDFCRTWPNQTEITVAGAHFIQEDSPDEIGAAIAAFVRRLRPA [S183D] | 50 | -1
MSLGAKPFGEKKFIEIKGRRMAYIDEGTGDPILFQHGNPTSSYLWRNIMPHCAGLGRLIACDLIGMGDSDKLDPSGPERYAYAEHRDYLDALWEALDLGDRVVLVVHDWGSALGFDWARRHRERVQGIAYMEAIAMPIEWADFPEQDRDLFQKFRSQAGEELVLQDNVFVEQVLPGLILRPLSEAEMAAYREPFLAAGEARRPTLSWPRQIPIAGTPADVVAIARDYAGWLSESPIPKLFINAEPGALTTGRMRDFCRTWPNQTEITVAGAHFIQEDSPDEIGAAIAAFVRRLRPA [A153K] | 61 | 10
MSLGAKPFGEKKFIEIKGRRMAYIDEGTGDPILFQHGNPTSSYLWRNIMPHCAGLGRLIACDLIGMGDSDKLDPSGPERYAYAEHRDYLDALWEALDLGDRVVLVVHDWGSALGFDWARRHRERVQGIAYMEAIAMPIEWADFPEQDRDLFQAFRSQAGEELVLQDNVFVEKVLPGLILRPLSEAEMAAYREPFLAAGEARRPTLSWPRQIPIAGTPADVVAIARDYAGWLSESPIPKLFINAEPGALTTGRMRDFCRTWPNQTEITVAGAHFIQEDSPDEIGAAIAAFVRRLRPA [Q172K] | 61.5 | 10.5
